# Legend:
# [1] = pyruvate kinase activity, HeLa lysate; settings: glycan gained; control: vector and OGTcd
# [2] = IP of HN-PKM2, anti-acetyl-lysine blot, 25 mM glucose; settings: glycan lost; control: PKM2wt
# [3] = exogenous PKM2 protein level in xenograft tumors; settings: glycan lost; control: PKM2wt tumors
# [4] = residual medium glucose normalised to cell number; settings: glycan lost; control: PKM2wt cells
# [5] = basal ECAR, Seahorse XF24; settings: glycan lost; control: PKM2wt cells
# [6] = sucrose density gradient ultracentrifugation, anti-Flag blot; settings: glycan lost; control: PKM2wt
# [7] = LDH-coupled pyruvate kinase assay, PEP titration, HeLa; settings: glycan lost; control: PKM2wt
Substance,enzymatic_activity [1],other: OGA-induced lysine acetylation [2],expression_or_secretion [3],other: cellular glucose consumption [4],other: glycolytic flux [5],oligomerisation [6],enzymatic_activity [7]
pyruvate kinase M2 (PKM2): OGTwt overexpression,decreases,–,–,–,–,–,–
pyruvate kinase M2 (PKM2): S362A,–,no change,no change,decreases,decreases,increases,increases
pyruvate kinase M2 (PKM2): T365A,–,–,no change,decreases,decreases,increases,increases
